Measured values: patent publication US20250066451A1 (SWEDISH ORPHAN BIOVITRUM AB PUBL, published 2025)
Blank lines part the entries; values can stand above or below the binder they belong to.

What was measured:
[1] = biological target: T1, Human IL-1R-I-Fc (Creative BioMart cat. no. IL1RI-771H) (human, UniProt P14778 18-332, limits assumed); test: ELISA screening, periplasmic extract
T1 construct: Bought protein; also called hIL-1R-I-Fc; hIL-1RI-Fc; not shown: Fc part of the bought fusion
T1 sequence (looked up): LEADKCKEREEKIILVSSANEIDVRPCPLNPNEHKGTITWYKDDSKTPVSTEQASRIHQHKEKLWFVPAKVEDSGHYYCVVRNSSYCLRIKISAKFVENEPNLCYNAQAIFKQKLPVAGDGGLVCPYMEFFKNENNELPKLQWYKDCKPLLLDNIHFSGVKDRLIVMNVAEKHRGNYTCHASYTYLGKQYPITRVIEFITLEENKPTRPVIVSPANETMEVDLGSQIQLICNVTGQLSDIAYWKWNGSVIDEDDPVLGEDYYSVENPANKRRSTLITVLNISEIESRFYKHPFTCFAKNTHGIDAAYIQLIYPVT

[2] = biological target: T1, Human IL-1R-I-Fc (Creative BioMart cat. …); test: ELISA titration; Z-ABD periplasmic extract, hIL-1R-I-Fc 100-0.01 nM

binding result [1]: no binding (tested: 1 nM hIL-1R-I-Fc)
B1: ABD001 (wild type albumin binding domain), periplasmic extract (other)
chain: LAEAKVLANRELDKYGVSDYYKNLINNAKTVEGVKALIDEILAALP
notes: Negative control; also called ABD negative control

EC50 [2]: 0.33 nM
B2: Z12917 as Z-ABD fusion (periplasmic extract) (designed binder)
chain: AQHDEALEVDAKYAKEARQAYAEIYLLPNLTRRQYTAFIRKLLDDPSQSSELLSEAKKLNDSQAPKVDYVLAEAKVLANRELDKYGVSDYYKNLINNAKTVEGVKALIDEILAALPYVPG
